One assay deals with HLA-A*24:02. In words: IEDB peptide-MHC binding, purified MHC/competitive/fluorescence; ≥ and ≤ were set here for values at or beyond the usual limits of such assays.
In the next assay the target is HLA-A*30:01. In words: IEDB peptide-MHC binding, purified MHC/competitive/radioactivity; filed as Kd, often an IC50 or EC50 that approximates it; ≥ and ≤ were set here for values at or beyond the usual limits of such assays.
A further assay concerns the target HLA-A*68:02. The assay is described as above.
A further assay concerns the target HLA-A*26:01. Described as above.
The next assay concerns the target HLA-B*53:01. Described as above. Conditions: source organism: Dengue virus 1 Brazil/97-11/1997.
Another assay addresses HLA-B*51:01. The assay is described as above.
The target in another assay is HLA-A*02:01. In words: IEDB peptide-MHC binding, purified MHC/competitive/fluorescence; ≥ and ≤ were set here for values at or beyond the usual limits of such assays.
Another assay has as its target HLA-A*02:06. In words: IEDB peptide-MHC binding, purified MHC/competitive/radioactivity; filed as Kd, often an IC50 or EC50 that approximates it; ≥ and ≤ were set here for values at or beyond the usual limits of such assays.
The target of a further assay is HLA-A*02:03. The assay is described as above. Conditions: source organism: Trypanosoma cruzi.
The next assay deals with HLA-A*02:02. Described as above. Conditions: source organism: Trypanosoma cruzi.
The target of a further assay is HLA-A*69:01. In words: IEDB peptide-MHC binding, purified MHC/direct/fluorescence; filed as Kd, often an IC50 or EC50 that approximates it; ≥ and ≤ were set here for values at or beyond the usual limits of such assays. The settings on record: source organism: Homo sapiens.
In another assay the target is HLA-A*01:01. The description is as above. The settings on record: source organism: Homo sapiens.
The next assay deals with HLA-A*11:01. Described as above.
In another assay the target is HLA-B*57:01. The description is as above. Conditions: source organism: Toxoplasma gondii.
A further assay addresses HLA-B*58:01. The assay is described as above. The settings on record: source organism: Toxoplasma gondii.
Another assay addresses HLA-A*03:01. The assay is described as above. The settings on record: source organism: Campylobacter jejuni RM1221.
The mark [1] stands for this setting: source organism: Sudan ebolavirus.
Where [2] appears, read: source organism: Vaccinia virus WR.
[3] abbreviates: source organism: Dengue virus 2 Jamaica/1409/1983.
Where [4] appears, read: source organism: Dengue virus 1 Brazil/97-11/1997.
Setting [5] is: source organism: Dengue virus 3 Martinique/1243/1999.
[6] abbreviates: source organism: Dengue virus 4 Dominica/814669/1981.
[7] abbreviates: source organism: Trypanosoma cruzi.
The mark [8] stands for this setting: source organism: Zaire ebolavirus.

Where only a bound is given, the exact number is not on record here.

Turning to AFHKDGAFF, the IC50 (in general, the concentration that inhibits the measured activity by half) with HLA-A*24:02 (setting [1]) turned out to be 9670 nM.

Turning to ATFTVNIFK, in the assay with HLA-A*30:01 (setting [2]), the dissociation constant (Kd) (as a rule, the equilibrium constant for the complex coming apart) worked out at 3.13 nM.

With AVKDVTITK, the Kd in the assay with HLA-A*30:01 (setting [2]) was 2.16 nM.

With AVSFSSPIS, the Kd in the assay with HLA-A*30:01 (setting [2]) was found to be 1310 nM.

Regarding CARISSRES, in the assay with HLA-A*30:01 (source organism: Vaccinia virus Copenhagen), the Kd was 586 nM.

In the case of CTILAVVSV, the dissociation constant (Kd) in the assay with HLA-A*68:02 (source organism: Dengue virus 2 16681-PDK53) was found to be 54.1 nM.

Turning to EAIMAVGMV, the Kd with HLA-A*26:01 (setting [3]) was 43.9 nM; in the assay with HLA-A*68:02 (setting [3]), 1.79 nM.

Turning to ELRRQVDQL, the Kd with HLA-A*68:02 (source organism: Homo sapiens) turned out to be 1210 nM.

For the sequence EPEVANLDI, the Kd was 7230 nM with HLA-B*53:01 and no less than 44500 nM with HLA-B*51:01 (setting [4]).

Turning to EPPFGESYI, in the assay with HLA-B*51:01 (setting [4]), the Kd worked out at 13800 nM.

For ETYQLWTALI, the Kd in the assay with HLA-A*26:01 (setting [5]) is 114 nM; with HLA-A*68:02 (setting [5]) it was 2.28 nM.

Regarding EVLTLATGPI, the Kd with HLA-A*26:01 (setting [6]) was 10400 nM; with HLA-A*68:02 (setting [6]) it was 100 nM.

For FHKDGAFFL, the IC50 with HLA-A*02:01 (setting [1]) is no less than 92900 nM; in the assay with HLA-A*24:02 (setting [1]), 6730 nM.

As for FSGKGPLRMV, in the assay with HLA-B*51:01 (source organism: Dengue virus 4 Philippines/H241/1956), the Kd is no less than 38000 nM.

Regarding FTMTHRRPTI, the Kd with HLA-A*02:06 (setting [5]) is 647 nM; with HLA-A*68:02 (setting [5]), 114 nM; with HLA-B*51:01 (setting [5]), no less than 20400 nM.

With FVNYNFTLV, the Kd in the assay with HLA-A*02:03 stood at 0.759 nM; with HLA-A*02:06 (setting [7]), 0.0031 nM; with HLA-A*68:02 (setting [7]), 0.336 nM; with HLA-A*02:02, 10.4 nM.

Turning to GAFFLYDRL, the values for the IC50 with HLA-A*02:01 (setting [1]) and with HLA-A*24:02 (setting [1]) were no less than 158000 nM and no less than 122000 nM, respectively.

GLLPSLLLLL: the Kd in the assay with HLA-A*02:03 was 1.83 nM; with HLA-A*02:06 (setting [7]), 7.28 nM; with HLA-A*68:02 (setting [7]) it was no less than 33000 nM; in the assay with HLA-A*02:02, 3.06 nM.

Turning to GSEDRDLLY, the equilibrium dissociation constant (Kd) amounted to 3960 nM with HLA-A*69:01, 42.6 nM with HLA-A*01:01 and 6940 nM in the assay with HLA-A*11:01 (source organism: Homo sapiens).

Take GTNGNHMQI: the IC50 in the assay with HLA-A*02:01 (setting [1]) was found to be 62900 nM; with HLA-A*24:02 (setting [1]), 3020 nM.

Take GVVTRSGAYV: the Kd in the assay with HLA-A*68:02 (setting [3]) is 333 nM.

Take HAYQGDYKL: the IC50 was no less than 78000 nM with HLA-A*02:01 (setting [8]) and 20900 nM with HLA-A*24:02 (setting [8]).

As to HTHLSNQNL, the Kd with HLA-A*30:01 (setting [2]) was 5.78 nM.

In the case of HYWTTQDEG, the IC50 with HLA-A*24:02 (setting [8]) came out at 42800 nM.

For the sequence KDFFSSHPL, the IC50 is no less than 249000 nM with HLA-A*02:01 (setting [8]) and 55100 nM with HLA-A*24:02 (setting [8]).

Consider KFMSNGEHV, for which the IC50 with HLA-A*02:01 (setting [2]) is 27700 nM; in the assay with HLA-A*24:02 (setting [2]), 4440 nM.

Consider KGFYASPSV, for which the Kd with HLA-A*30:01 (setting [2]) is 2.68 nM.

As for KLEGDSTDL, in the assay with HLA-A*68:02 (source organism: Homo sapiens), the Kd was 2050 nM.

Turning to KNRLNALGK, the Kd with HLA-A*30:01 (source organism: Dengue virus 2 Peru/IQT2913/1996) turned out to be 142 nM.

KRSNTTGKL came in with a half-maximal inhibitory concentration (IC50) in the assay with HLA-A*24:02 (setting [8]) of 66100 nM.

Regarding KSKQLKSFL, the Kd in the assay with HLA-A*30:01 (setting [2]) stood at 13.2 nM.

For KTSGRGSCM, the figures for the Kd in the assay with HLA-B*57:01 and with HLA-B*58:01 were no less than 20000 nM and 6000 nM, respectively.

On to KVSDSNLHK, for which the Kd in the assay with HLA-A*03:01 was found to be 190 nM; with HLA-A*11:01 (source organism: Campylobacter jejuni RM1221), 4.6 nM.

As to KVVRVQRPAK, the Kd with HLA-A*30:01 (setting [4]) amounted to 6.11 nM.

For KVYIGYCMA, the Kd with HLA-A*30:01 (setting [2]) turned out to be 2.6 nM.

For the sequence LAGVSLLPV, in the assay with HLA-B*51:01 (setting [5]), the Kd came out at 1910 nM.

(Values after the Immune Epitope Database (IEDB).)
